Values of other authors in patent US10709784B2, “Metal chelating compositions and methods for controlling the growth or activities of a living cell or organism” (CHELATION PARTNERS INCORPORATED, priority 2011, dated 2020).

Conditions: comparison value, molecular weight 80 kDa/mole

B1: lactoferrin: iron binding defence protein, molecular weight 80 kDa/mole (protein, UniProt P02788 20-710, looked up)
Lactotransferrin: GRRRSVQWCAVSQPEATKCFQWQRNMRKVRGPPVSCIKRDSPIQCIQAIAENRADAVTLDGGFIYEAGLAPYKLRPVAAEVYGTERQPRTHYYAVAVVKKGGSFQLNELQGLKSCHTGLRRTAGWNVPIGTLRPFLNWTGPPEPIEAAVARFFSASCVPGADKGQFPNLCRLCAGTGENKCAFSSQEPYFSYSGAFKCLRDGAGDVAFIRESTVFEDLSDEAERDEYELLCPDNTRKPVDKFKDCHLARVPSHAVVARSVNGKEDAIWNLLRQAQEKFGKDKSPKFQLFGSPSGQKDLLFKDSAIGFSRVPPRIDSGLYLGSGYFTAIQNLRKSEEEVAARRARVVWCAVGEQELRKCNQWSGLSEGSVTCSSASTTEDCIALVLKGEADAMSLDGGYVYTAGKCGLVPVLAENYKSQQSSDPDPNCVDRPVEGYLAVAVVRRSDTSLTWNSVKGKKSCHTAVDRTAGWNIPMGLLFNQTGSCKFDEYFSQSCAPGSDPRSNLCALCIGDEQGENKCVPNSNERYYGYTGAFRCLAENAGDVAFVKDVTVLQNTDGNNNEAWAKDLKLADFALLCLDGKRKPVTEARSCHLAMAPNHAVVSRMDKVERLKQVLLHQQAKFGRNGSDCPDKFCLFQSETKNLLFNDNTECLARLHGKTTYEKYLGPQYVAGITNLKKCSTSPLLEACEFLRK
Fe bound per mole: 2 atoms of Fe/mole
